Results reported in PMC5913291.

Target: T1, Interferon regulatory factor 3 (IRF-3) (human (endogenous in HEK293T)), Q14653
T1 chain: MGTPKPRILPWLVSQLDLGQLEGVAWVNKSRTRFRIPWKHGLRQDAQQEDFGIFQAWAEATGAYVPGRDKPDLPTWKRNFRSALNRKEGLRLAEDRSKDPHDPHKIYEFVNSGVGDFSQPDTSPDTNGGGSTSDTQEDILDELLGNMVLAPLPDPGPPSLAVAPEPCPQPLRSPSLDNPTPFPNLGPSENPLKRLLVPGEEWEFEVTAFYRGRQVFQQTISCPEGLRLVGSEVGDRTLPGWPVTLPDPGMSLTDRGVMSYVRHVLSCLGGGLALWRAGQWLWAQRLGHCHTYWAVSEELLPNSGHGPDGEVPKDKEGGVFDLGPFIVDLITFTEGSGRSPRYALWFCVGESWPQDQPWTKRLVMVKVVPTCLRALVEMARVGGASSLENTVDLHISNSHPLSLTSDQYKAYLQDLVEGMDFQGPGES
Assay: native gel or EMSA; lysates of HEK293T cells transfected with HCV 3'-UTR RNA, left untreated or treated with 2.5 mM cFP, 12 h post-transfection; native PAGE and immunoblot for IRF-3 dimers
Details: remark: other sources report otherwise

B1: Interferon regulatory factor 3 (IRF-3), Q14653 1-427 (natural protein)
chain: T1 chain
Work on B1 yielded a stoichiometry N of 2.
